Columns and labels:
[1] = biological target: MHC class I H2-K^d-… (HIV-1; mouse) (UniProt P01902)
[2] = biological target: MHC class I H2-K^d-… (HIV-1; mouse) (UniProt P01902); assay: H2-K^d-… tetramer staining of splenocytes, flow cytometry

Substance	IFN-γ ELISPOT (fold against the p24fc-immunized group) [1]	frequency of p24-specific tetramer^+ CD8^+ T cells [2] [%]
splenocytes (T cells) of mice immunized with human sΔ42PD1-p24fc DNA (cells without a defined receptor)	10	
splenocytes (T cells) of mice vaccinated with msΔ42PD1-p24fc DNA (cells without a defined receptor)		17
